Measured values reported in article PMC12528421.

How the values were obtained:
Test in all cases: EMSA
GST-STAT3 = GST-STAT3 (human, UniProt P40763 1-770)
GST-STAT3;Flag-AS160 [1] = biological target: T1, GST-STAT3;Flag-AS160 (human;human, UniProt P40763;O60343 1-770;1-1298, |)
Flag-AS160 = biological target: T2, Flag-AS160 (human, UniProt O60343 1-1298)
T2 sequence: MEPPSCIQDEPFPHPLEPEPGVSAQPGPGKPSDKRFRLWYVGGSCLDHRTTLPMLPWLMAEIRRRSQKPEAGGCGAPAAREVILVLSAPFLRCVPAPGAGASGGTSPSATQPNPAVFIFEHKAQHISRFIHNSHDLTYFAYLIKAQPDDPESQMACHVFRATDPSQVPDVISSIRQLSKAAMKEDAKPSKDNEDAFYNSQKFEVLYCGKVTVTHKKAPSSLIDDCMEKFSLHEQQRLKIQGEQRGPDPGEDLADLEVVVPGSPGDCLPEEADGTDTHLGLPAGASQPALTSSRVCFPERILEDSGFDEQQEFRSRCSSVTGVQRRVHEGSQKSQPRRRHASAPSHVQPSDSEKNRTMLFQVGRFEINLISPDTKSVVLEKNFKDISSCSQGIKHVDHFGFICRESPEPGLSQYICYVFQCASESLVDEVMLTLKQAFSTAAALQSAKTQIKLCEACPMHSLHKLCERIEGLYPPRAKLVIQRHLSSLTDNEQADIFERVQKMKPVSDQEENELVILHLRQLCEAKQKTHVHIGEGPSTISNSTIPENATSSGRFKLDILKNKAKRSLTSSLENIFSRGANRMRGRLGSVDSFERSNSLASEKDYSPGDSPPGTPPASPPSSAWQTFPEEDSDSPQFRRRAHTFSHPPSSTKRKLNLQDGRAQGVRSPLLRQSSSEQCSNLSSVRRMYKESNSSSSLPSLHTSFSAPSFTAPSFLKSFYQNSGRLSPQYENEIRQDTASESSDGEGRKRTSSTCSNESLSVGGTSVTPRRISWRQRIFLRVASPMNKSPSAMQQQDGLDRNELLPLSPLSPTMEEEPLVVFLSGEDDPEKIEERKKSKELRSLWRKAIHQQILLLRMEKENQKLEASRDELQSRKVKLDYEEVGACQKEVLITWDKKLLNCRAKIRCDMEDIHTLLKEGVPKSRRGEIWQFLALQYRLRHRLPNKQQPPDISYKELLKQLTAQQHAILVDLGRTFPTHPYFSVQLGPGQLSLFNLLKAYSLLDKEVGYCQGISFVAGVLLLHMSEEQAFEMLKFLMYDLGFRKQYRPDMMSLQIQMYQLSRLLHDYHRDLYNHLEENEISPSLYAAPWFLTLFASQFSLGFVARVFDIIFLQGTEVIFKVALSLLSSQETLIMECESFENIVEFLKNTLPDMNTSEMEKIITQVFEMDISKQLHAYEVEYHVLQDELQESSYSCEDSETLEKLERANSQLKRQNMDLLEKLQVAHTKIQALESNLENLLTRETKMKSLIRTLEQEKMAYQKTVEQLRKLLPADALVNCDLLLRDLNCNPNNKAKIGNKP

GST-STAT3;Flag-AS160 [2] = biological target: T1, GST-STAT3;Flag-AS160; remark: listed apart in the source

GST-STAT3, sequence (P40763 whole entry): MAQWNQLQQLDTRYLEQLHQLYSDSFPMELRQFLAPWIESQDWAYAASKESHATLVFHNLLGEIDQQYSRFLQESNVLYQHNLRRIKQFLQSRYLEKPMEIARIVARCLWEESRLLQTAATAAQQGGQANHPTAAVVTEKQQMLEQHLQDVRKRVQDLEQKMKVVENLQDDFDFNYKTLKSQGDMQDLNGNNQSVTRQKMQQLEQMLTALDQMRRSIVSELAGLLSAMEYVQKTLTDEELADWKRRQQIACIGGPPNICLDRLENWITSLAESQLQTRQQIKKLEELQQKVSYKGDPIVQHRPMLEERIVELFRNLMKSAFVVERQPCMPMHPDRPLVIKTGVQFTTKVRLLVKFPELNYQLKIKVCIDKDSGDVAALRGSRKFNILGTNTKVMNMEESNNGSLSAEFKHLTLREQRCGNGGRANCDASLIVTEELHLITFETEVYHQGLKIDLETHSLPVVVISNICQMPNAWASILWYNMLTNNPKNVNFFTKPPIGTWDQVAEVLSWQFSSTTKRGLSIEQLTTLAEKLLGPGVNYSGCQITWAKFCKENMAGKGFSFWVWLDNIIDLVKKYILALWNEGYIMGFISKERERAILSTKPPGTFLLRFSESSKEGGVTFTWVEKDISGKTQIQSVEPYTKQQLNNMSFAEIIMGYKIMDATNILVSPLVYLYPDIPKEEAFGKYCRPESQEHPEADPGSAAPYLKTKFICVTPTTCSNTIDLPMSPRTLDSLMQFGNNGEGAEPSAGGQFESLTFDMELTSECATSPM
T1 sequence (P40763 whole entry, one chain of several): as the sequence (P40763 whole entry) above

B1: Myod1 promoter bind site 3 probe (dsDNA)
DNA 1: CAGATATTCTCTGAGCCATTCCCAGATGAGATATTCTCTGAGCCATTCCCAGATGG
DNA 2: CCATCTGGGAATGGCTCAGAGAATATCTCATCTGGGAATGGCTCAGAGAAT
GST-STAT3
  binding result: binds
GST-STAT3;Flag-AS160 [1]
  binding result: binds
Flag-AS160
  binding result: no binding

B2: Pax7 promoter bind site 2 probe (dsDNA)
DNA 1: ATCCCATCCCCGGAAGCCCTCCCATCCCCGGAAGCCCTCCCATCCCCGGAAGCCC
DNA 2: GGGCTTCCGGGGATGGGAGGGCTTCCGGGGATGGGAGGGCTTCCGGGGA
GST-STAT3
  binding result: binds
GST-STAT3;Flag-AS160 [1]
  binding result: binds
Flag-AS160
  binding result: no binding

B3: Classical STAT3 motif probe (dsDNA)
DNA 1: GATCCTTCTGGGAATTCCGATCCTTCTGGGAATTCCGATCCTTCTGGGAATTCC
DNA 2: GGAATTCCCAGAAGGATCGGAATTCCCAGAAGGATCGGAATTCCCAGA
GST-STAT3
  binding result: binds
GST-STAT3;Flag-AS160 [2]
  binding signal: > 2 fold vs STAT3 alone
Flag-AS160
  binding result: no binding

B4: Myod1 promoter bind site 2 probe (dsDNA)
DNA 1: ACATTGTTCCTGGATATGACATTGTTCCTGGATATGACATTGTTCCTGGATATGA
DNA 2: TCATATCCAGGAACAATGTCATATCCAGGAACAATGTCATATCCAGGAA
GST-STAT3
  binding result: binds
GST-STAT3;Flag-AS160 [1]
  binding result: binds
Flag-AS160
  binding result: no binding

B5: Myod1 promoter bind site 1 probe (dsDNA)
DNA 1: ATTGGATTCCTGGCATCCGTTGGATTCCTGGCATCCGTTGGATTCCTGGCATCCG
DNA 2: CGGATGCCAGGAATCCAACGGATGCCAGGAATCCAACGGATGCCAGGAA
GST-STAT3
  binding result: binds
GST-STAT3;Flag-AS160 [1]
  binding result: binds
Flag-AS160
  binding result: no binding

B6: Pax7 promoter bind site 1 probe (dsDNA)
DNA 1: ATATGTTTACAGAAAGACATATGTTTACAGAAAGACATATGTTTACAGAAAGACA
DNA 2: TGTCTTTCTGTAAACATATGTCTTTCTGTAAACATATGTCTTTCTGTAA
GST-STAT3
  binding result: binds
GST-STAT3;Flag-AS160 [1]
  binding result: binds
Flag-AS160
  binding result: no binding

B7: Pax7 promoter bind site 3 probe (dsDNA)
DNA 1: AATTCTTCCGGGGATGTCAATTCTTCCGGGGATGTCAATTCTTCCGGGGATGTC
DNA 2: GACATCCCCGGAAGAATTGACATCCCCGGAAGAATTGACATCCCCGGA
GST-STAT3
  binding result: binds
GST-STAT3;Flag-AS160 [1]
  binding result: binds
Flag-AS160
  binding result: no binding
